The results in this text go back to paper PMC3632125 (Nucleic Acids Research, 2013).

In one data set the target is T1, Psy3 (S. cerevisiae, UniProt Q12318 1-242).
T1 sequence: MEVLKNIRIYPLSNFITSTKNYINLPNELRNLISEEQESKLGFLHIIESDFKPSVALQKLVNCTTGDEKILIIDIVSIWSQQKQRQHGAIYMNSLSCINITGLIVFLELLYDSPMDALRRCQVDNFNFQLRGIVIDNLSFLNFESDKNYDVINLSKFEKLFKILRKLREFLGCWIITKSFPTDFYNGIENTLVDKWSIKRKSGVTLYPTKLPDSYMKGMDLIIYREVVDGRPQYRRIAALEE
The experiment in a line: SEC. A general note: Size exclusion chromatography separates by hydrodynamic size, large species first.

Data set [1] has as its target T2, Csm2;Psy3 (Saccharomyces cerevisiae;Saccharomyces …, UniProt P40465;Q12318 1-213;1-242, |).
T2 sequence 1: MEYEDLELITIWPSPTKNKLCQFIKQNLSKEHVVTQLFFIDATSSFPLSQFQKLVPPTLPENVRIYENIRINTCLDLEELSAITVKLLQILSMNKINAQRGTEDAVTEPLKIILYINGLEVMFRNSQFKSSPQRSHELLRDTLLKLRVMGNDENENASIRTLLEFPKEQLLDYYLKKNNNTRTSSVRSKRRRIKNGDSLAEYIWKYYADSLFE
T2 sequence 2: T1 sequence
The experiment in a line: fluorescence anisotropy. (In general: Polarisation of emitted light reports the rotation of a fluorescent probe.)

Data set [2] addresses T2, Csm2;Psy3. As to the kind of experiment: competition.

B1: Csm2 (natural protein)
chain: T2 sequence 1
For the molecule B1, the binding result with Psy3 is on record as “binds”.

B2: fluorescein-labelled fork (mixed)
DNA 1: TTTTTTTTTTTTTTTTTTTTCTTGACAAGCTTGCGCACT
DNA 2: AGTGCGCAAGCTTGTCAAGGCACTTTTTTTTTTTTTTTT
Usually Kd stands for the constant that tells how readily two partners part at equilibrium. A higher Kd goes with weaker binding. In the data set with Csm2;Psy3 [1], B2 returned a Kd of 361 ± 10.9 nM.

B3: 3'-overhang (mixed)
DNA 1: CTGCGAGCTCGAATTCACTGGAGTGACCTC
DNA 2: GAGGTCACTCCAGTGAATTCGAGCTCGCAGTGTCTAGGTCGTGACTTTGA
Consider B3, for which the binding result with Csm2;Psy3 [2] was “binds”.
